Consider two molecules from paper PMC3790011, “Transcription Factor Reb1p Regulates DGK1-encoded Diacylglycerol Kinase and Lipid Metabolism in Saccharomyces cerevisiae*”.

For series [1], the target named is T1, Reb1p (His6-Reb1p) (Saccharomyces cerevisiae RS453, UniProt P21538 1-810).
T1 sequence: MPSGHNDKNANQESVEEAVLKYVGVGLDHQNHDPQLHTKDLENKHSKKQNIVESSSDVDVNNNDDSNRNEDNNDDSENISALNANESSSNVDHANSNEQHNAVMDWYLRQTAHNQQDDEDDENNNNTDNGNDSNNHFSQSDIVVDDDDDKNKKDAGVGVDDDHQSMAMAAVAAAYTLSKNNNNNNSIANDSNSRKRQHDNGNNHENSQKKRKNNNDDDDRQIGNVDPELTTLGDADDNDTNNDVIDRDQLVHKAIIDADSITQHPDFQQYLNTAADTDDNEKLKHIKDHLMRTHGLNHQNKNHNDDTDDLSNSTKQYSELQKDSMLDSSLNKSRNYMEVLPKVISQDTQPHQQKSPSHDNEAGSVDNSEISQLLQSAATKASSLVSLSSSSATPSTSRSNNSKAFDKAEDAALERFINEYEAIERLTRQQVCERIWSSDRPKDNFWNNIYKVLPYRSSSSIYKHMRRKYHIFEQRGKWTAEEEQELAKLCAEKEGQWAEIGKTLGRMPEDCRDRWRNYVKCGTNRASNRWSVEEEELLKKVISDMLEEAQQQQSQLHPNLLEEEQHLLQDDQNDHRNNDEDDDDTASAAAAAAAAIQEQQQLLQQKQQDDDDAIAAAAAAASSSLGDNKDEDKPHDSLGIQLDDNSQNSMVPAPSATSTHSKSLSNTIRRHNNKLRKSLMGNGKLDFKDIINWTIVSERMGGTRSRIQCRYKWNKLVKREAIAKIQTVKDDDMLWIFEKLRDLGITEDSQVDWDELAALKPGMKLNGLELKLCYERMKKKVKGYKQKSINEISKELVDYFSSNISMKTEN
The series is described as follows: competition; 10 mM Mg2+; 0.5 ug Reb1p, 4-16 pmol unlabeled competitor against 4 pmol labeled wild type probe; 10 mM Tris-HCl pH 8.0, 10 mM MgCl2, 50 mM KCl, 1 mM DTT, 0.025 mg/ml poly(dI-dC), 0.2 mg/ml BSA, 0.04% IGEPAL CA-630, 10% glycerol; 15 min, room temperature; 5% PAGE in 0.5x TBE. Conditions: protein: recombinant; tags: N-terminal His6 (pET-15b); blunt.

Series [2] concerns the target T1, Reb1p (His6-Reb1p). The series is described as follows: EMSA; 10 mM Mg2+; 0.2-1.0 ug Reb1p, 4 pmol probe; 10 mM Tris-HCl pH 8.0, 10 mM MgCl2, 50 mM KCl, 1 mM DTT, 0.025 mg/ml poly(dI-dC), 0.2 mg/ml BSA, 0.04% IGEPAL CA-630, 10% glycerol; 15 min, room temperature; 5% PAGE in 0.5x TBE. The conditions noted are these: protein: recombinant; tags: N-terminal His6 (pET-15b); label: 32P (alpha-32P dTTP, Klenow); blunt.

B1: unlabeled DGK1 wild type competitor (dsDNA)
DNA 1: AGGGTCCATAGCGGGTAACAAATTATTGG
DNA 2: CCAATAATTTGTTACCCGCTATGGACCCT
With B1, the binding result in series [1] was “binds”.

B2: DGK1 promoter Reb1p site wild type (dsDNA)
DNA 1: AGGGTCCATAGCGGGTAACAAATTATTGG
DNA 2: CCAATAATTTGTTACCCGCTATGGACCCT
With B2, the binding result in series [2] was “binds”.
